Biological target: T1, recombinant mouse TNF-α (mouse), P06804
T1 chain: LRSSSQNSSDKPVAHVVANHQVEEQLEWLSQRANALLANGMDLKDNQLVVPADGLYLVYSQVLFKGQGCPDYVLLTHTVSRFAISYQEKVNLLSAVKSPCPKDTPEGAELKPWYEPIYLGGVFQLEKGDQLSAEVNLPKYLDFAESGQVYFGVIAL
Test: cross-linking; 100 ng recombinant TNF-α incubated 1 h at 37 °C with different concentrations of DMSO (or without: cross-linked control), cross-linked with 4.8 mM BS3 for 30 min at room temperature, stopped with 1/10 volume 1 M Tris-HCl pH 7.5; SDS-PAGE and Western blot with anti-TNF-α antibody
Conditions: remark: other sources report otherwise

B1: recombinant mouse TNF-α, P06804 80-235 (ligand)
chain: T1 chain
stoichiometry N: 3

— paper PMC7763846
